In US20210221914A1:

Key:
CD16a176V = CD16a176V (UniProt P08637); experiment: SPR, BIAcore 8K, antibody captured on anti-Fab chip, single-cycle kinetics, bivalent analyte model
CD16a176F = CD16a176F (UniProt P08637); experiment: as above
CD16b (FcgammaRIIIb) = CD16b (FcgammaRIIIb) (UniProt O75015); experiment: as above
CD32b (FcgammaRIIb) = CD32b (FcgammaRIIb) (UniProt P31994); experiment: SPR, BIAcore 8K, antibody captured on anti-Fab chip, steady state affinity fit
CD32a167H = CD32a167H (UniProt P12318); experiment: as above
Sequence of CD32a167H (P12318 36-218 limits assumed): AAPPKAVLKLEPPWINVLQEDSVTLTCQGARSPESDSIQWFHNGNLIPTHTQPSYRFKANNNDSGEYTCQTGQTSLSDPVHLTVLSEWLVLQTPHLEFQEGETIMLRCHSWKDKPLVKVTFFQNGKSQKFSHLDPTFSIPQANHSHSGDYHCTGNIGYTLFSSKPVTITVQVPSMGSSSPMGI

CD32a167R = CD32a167R (UniProt P12318); experiment: as above
Sequence of CD32a167R (P12318 36-218 H167R limits assumed): as the sequence (P12318 36-218 limits assumed) above, with H132R counted along it

CD64 (FcgammaRI) = CD64 (FcgammaRI) (UniProt P12314); experiment: SPR, single-cycle kinetics, bivalent analyte model
Sequence of CD64 (FcgammaRI) (P12314 16-288 limits assumed): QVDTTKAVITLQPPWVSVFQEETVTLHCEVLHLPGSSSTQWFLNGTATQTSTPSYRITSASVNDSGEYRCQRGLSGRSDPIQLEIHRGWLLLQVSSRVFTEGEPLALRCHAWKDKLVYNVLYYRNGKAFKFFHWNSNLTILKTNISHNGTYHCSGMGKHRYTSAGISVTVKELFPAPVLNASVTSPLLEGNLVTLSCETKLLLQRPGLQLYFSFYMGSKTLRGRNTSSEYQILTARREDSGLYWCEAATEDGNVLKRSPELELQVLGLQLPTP

Sequence of CD16a176V (P08637 17-208 F176V limits assumed): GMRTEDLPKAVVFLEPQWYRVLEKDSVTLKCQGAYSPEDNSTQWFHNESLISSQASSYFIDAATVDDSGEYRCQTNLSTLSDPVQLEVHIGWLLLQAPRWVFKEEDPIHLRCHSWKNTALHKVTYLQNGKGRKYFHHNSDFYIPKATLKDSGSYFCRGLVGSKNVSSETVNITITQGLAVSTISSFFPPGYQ
Sequence of CD16a176F (P08637 17-208 limits assumed): as the sequence (P08637 17-208 F176V limits assumed) above, with V160F counted along it
Sequence of CD32b (FcgammaRIIb) (P31994 46-217 limits assumed): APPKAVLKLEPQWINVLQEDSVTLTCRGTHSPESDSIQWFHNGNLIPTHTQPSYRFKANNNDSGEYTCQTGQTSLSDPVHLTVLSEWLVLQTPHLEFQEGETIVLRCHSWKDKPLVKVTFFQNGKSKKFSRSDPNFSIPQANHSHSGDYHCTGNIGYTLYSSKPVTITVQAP

| Substance | Kd (CD16a176V) [nM] | koff (CD16a176V) [s⁻¹] | kon (CD16a176V) [M⁻¹ s⁻¹] | Kd (CD16a176F) [nM] | koff (CD16a176F) [s⁻¹] | kon (CD16a176F) [M⁻¹ s⁻¹] | Kd (CD16b (FcgammaRIIIb)) [nM] | koff (CD16b (FcgammaRIIIb)) [s⁻¹] | kon (CD16b (FcgammaRIIIb)) [M⁻¹ s⁻¹] | Kd (CD32b (FcgammaRIIb)) [nM] | Kd (CD32a167H) [nM] | Kd (CD32a167R) [nM] | fold increase in off-rate relative to CD-WT (CD64 (FcgammaRI)) [fold] |
| --- | --- | --- | --- | --- | --- | --- | --- | --- | --- | --- | --- | --- | --- |
| CD-GLU antibody (human IgG1, m1,17 allotype, CD loop replaced by the Glu epitope YMPMENNY) | 334 | 0.146 | 438000 | 1050 | 0.189 | 181000 | 556 | 0.168 | 302000 | 1610 | 505 | 488 | 1.2 |
| CD-WT antibody (human IgG1, m1,17 allotype, wild-type CD loop) | 241 | 0.181 | 751000 | 869 | 0.185 | 213000 | 426 | 0.166 | 389000 | 1530 | 450 | 439 |  |
